For series [1], the system named is CN(C)c1ccc(N=Nc2ccc(S(=O)(=O)N[C@@H](CC[S@+](C)[O-])C(=O)O)cc2)cc1. Nature of the series: DTT-dependent HPLC assay of dabsyl-Met. Type of series: biochemical, Helicobacter pylori. To be noted: 20 mM DTT, 50 mM sodium phosphate pH 7.5, 50 mM NaCl, 37 °C, Met-S-O, methods dabsyl-Met-S-O, MsrA site.
Series [2] has as its system CN(C)c1ccc(N=Nc2ccc(S(=O)(=O)N[C@@H](CC[S@@+](C)[O-])C(=O)O)cc2)cc1. Nature of the series: DTT-dependent HPLC assay of dabsyl-Met. The format is biochemical, Helicobacter pylori. As to conditions: 20 mM DTT, 50 mM sodium phosphate pH 7.5, 50 mM NaCl, 37 °C, Met-R-O, methods dabsyl-Met-R-O, MsrB site.

Broadly, the Km is the concentration of substrate that gives half-maximal velocity. As a reminder, the kcat is the maximal rate divided by the concentration of active sites. In general, kcat/Km refers to the second-order rate constant that governs catalysis at low substrate concentration.

Consider “HpMsrAB (WT) (Helicobacter pylori 26695)”, for which, in series [1], the Michaelis-Menten constant (Km) is reported as 0.17 ± 0.06 mM, the kcat is 0.17 ± 0.0217 s⁻¹ and the kcat/Km turned out to be 1000 ± 117 M⁻¹ s⁻¹. In series [2], the Km turned out to be 0.05 ± 0.02 mM, the kcat is 0.157 ± 0.00667 s⁻¹ and the kcat/Km worked out at 3130 ± 133 M⁻¹ s⁻¹.

The values above are taken from article PMC8000184, “Structural Insights into a Bifunctional Peptide Methionine Sulfoxide Reductase MsrA/B Fusion Protein from Helicobacter pylori” (Antioxidants, 2021).
